Laboratory results taken from the Human Domainome abundance scans (Beltran et al. 2025).

B1: Homeobox protein SIX3, residues 212 to 262; numbered along this chain, O95343 (parent)
chain: CFKERTRSLLREWYLQDPYPNPSKKRELAQATGLTPTQVGNWFKNRRQRDR
B2: Zinc finger protein ZIC 2, residues 250 to 295; numbered along this chain, O95409 (parent)
chain: QCIKQELICKWIDPEQLSNPKKSCNKTFSTMHELVTHVSVEHVGGP

Variants of: B1
Test: abundance fitness (aPCA) (normalised: wild type 0, dead -1); higher = more abundant; growth selection in yeast, the domain comes from the species named
Conditions: Homo sapiens

Abundance fitness of substitutions, site by site:
N45: Y -0.725
R46: A -0.306, C -0.554, D -0.67, E -0.167, F -0.63, G -0.937, H -0.269, I -0.748, K 0.144, L -0.531, M -0.182, N -0.456, P -0.611, Q -0.045, S -0.326, T -0.117, V -0.635, W -0.817, Y -0.504
R47: A -0.465, C -0.804, D -0.654, F -0.548, G -0.898, H -0.617, I -0.613, K -0.591, M -0.975, N -0.552, P -0.532, Q -0.473, S -0.723, T -0.84, V -0.586, W -0.641, Y -0.945
Q48: A 0.028, C -0.147, D -0.37, E -0.267, F -0.46, H -0.042, K 0.177, L -0.225, M -0.431, N -0.166, P -0.799, R 0.397, S -0.124, T -0.242, V -0.545, W -0.117, Y -0.055
R49: A -0.222, C -0.539, D -0.033, E 0, F -0.373, G -0.373, H -0.371, I -0.216, K 0.025, L -0.388, M -0.247, N -0.221, P -0.844, Q 0.018, S -0.279, T -0.18, V -0.153, W -0.462, Y -0.074
D50: A -0.579, C -0.678, E 0.189, G -0.609, H -0.515, I -0.737, L -0.64, M -0.799, N -0.747, Q -0.276, R -1.08, S -0.491, T -0.582, V -0.699, W -1.17, Y -0.6
R51: A -0.031, D 0.246, E -0.155, F -0.18, G -0.375, N -0.267, V -0.441, W -0.309

Variants of: B2
Test: as above
Conditions: Homo sapiens

Abundance fitness of substitutions, site by site:
Q1: A 0.373, C -0.274, D 0.21, E -0.077, G -0.22, H -0.101, K -0.455, L -0.356, M -0.131, N 0.294, P -0.915, S 0.503, T 0.146, V -0.349, W -0.321, Y -0.705
C2: D 0.108, E 0.123, F -0.182, G 0.259, H -0.126, I 0.605, K 0.194, L 0.73, M 0.612, N -0.176, P -0.136, Q 0.127, R -0.129, S 0.047, T 0.126, V 0.419
I3: A -0.568, C -0.673, D -0.541, E -0.352, F -0.57, H -0.518, K -0.652, L -0.254, M 0.174, N -0.602, P -0.586, Q 0.224, R -0.61, S -0.526, T 0.052, V -0.248, W -0.376, Y -0.151
K4: A -0.187, C -0.411, D 0.261, E 0.088, F -0.645, G -0.309, H -0.816, I -0.734, L -0.184, M -0.105, N -0.085, P -0.236, Q -0.458, S -0.204, T -0.304, V -0.513, W -1.05, Y -0.671
Q5: A -0.071, C -0.733, D 0.366, E 0.242, F -0.612, G -0.283, H -0.382, I -0.906, K 0.05, L -0.661, M -0.688, N 0.018, P 0.037, R -0.014, S -0.24, T -0.22, V -0.779, W -0.777, Y -0.641
E6: A -0.351, C -0.632, F -1.04, G -0.198, H -0.687, I -1.62, K -0.687, L -0.974, N -0.264, Q -0.207, R -0.312, S 0.009, T -0.748, V -0.778, W -0.767, Y -0.653
L7: A 0.097, C -0.196, D -0.375, E 0.17, F -0.322, G -0.425, H 0.306, I -0.103, K 0.309, M 0.191, N 0.22, P 0.194, Q 0.401, R 0.044, T 0.001, V 0.08, W -0.223, Y -0.152
I8: C -0.177, D 0.384, G 0.036, H 0.033, K 0.4, L -0.056, M 0.031, N 0.586, Q 0.171, R 0.241, S 0.02, T 0.041, V 0.086, W -0.31, Y -0.245
C9: A -0.651, D -0.758, E -0.578, F -0.975, G -0.714, H -1.03, I -0.96, K -0.473, L -0.863, M -0.822, P -0.776, Q -0.675, S -0.78, V -0.841, W -1.03, Y -0.829
K10: A -0.193, C -0.19, D 0.018, E 0.157, F -0.506, G -0.138, H 0.236, I -0.484, L -0.248, N 0.394, P -0.45, Q 0.205, T 0.33, V -0.4, W -0.277, Y 0.165
W11: A -0.223, C -0.712, D -0.647, E 0.117, F 0.187, G -0.089, H 0.002, K 0.216, L -0.079, M -0.146, N -0.216, P -0.348, Q 0.241, R 0.037, S -0.212, T -0.413, V -0.115, Y 0.005
I12: A -0.363, C 0.013, D -0.064, E 0.111, F -0.179, G -0.278, H 0.098, K -0.085, L -0.551, M -0.077, N -0.417, P 0.018, Q -0.144, R -0.228, S -0.022, T 0.041, Y -0.175
D13: A -0.101, C -0.176, E -0.235, F 0.041, G -0.328, H -0.216, I -0.559, K -0.66, M -0.568, P -0.387, Q -0.492, R -0.442, S -0.352, T -0.81, V -0.434, W -0.311
P14: A -0.316, C -0.33, D -0.65, E -0.216, F -0.788, G -0.237, H -0.199, I -0.975, K -0.885, L -0.434, M -0.334, N -0.123, Q -0.449, R -0.2, S -0.28, T -0.377, V -0.369, W -0.484
